Test: yeast display, Sf9 membrane polyspecificity reagent, FACS + sequencing; frameworks hold sequencing errors
In short: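 Genes from sorted yeast were amplified by colony PCR, read by MiSeq 2 × 250 sequencing and filtered on CDR length. These cells carried a synthetic nanobody library in Saccharomyces cerevisiae BJ5465 and were sorted by FACS into low and high (top ~1%) gates on anti-HA and streptavidin fluorescence. Polyreactivity is labelled according to the gate of origin.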

| Sequence | polyreactivity (PSR sort gate) |
| --- | --- |
| QVQLVESGGGLVQAGGSLRLSCAASGFTFWSYAMGWYRQAPGKERELVAGITIDGNTYYADSVKGRFTISRDNAKNTVYLQMNSLKPEDTAVYYCAAVAYYYGYDYWGQGTQVTVSS | low polyreactivity |
| QVQLVESGGGLVQAGGSLRLSCAASGRIFRYNAMGWYRQAPGKERELVAAITWDGGSTYYADSVKGRFTISRDNAKNTVYLQMNSLKPEDTAVYYCNAVTRSYYSYYYWGQGTQVTVSS | high polyreactivity |
| QVQLVESGGGLVQAGGSLRLSCAASGRIFPINAMGWYRQAPGKERELVAAISGDGGDTYYADSVKGRFTISRDNAKNTVYLQMNSLKPEDTAVYYCAADALGYDYYYWGQGTQVTVSS | low polyreactivity |
| QVQLVESGGGLVQAGGSLRLSCAASGLIFPYYAMGWYREAPGKARELVASIRYSAGNTYYADSVKGRFTISRDNAKNTVYLQMNSLKPEDTAVYYCWYTQNTLGNYWGQGTQVTVSS | low polyreactivity |
| QVQLVESGGCLVQAGGSLRLSCAASGSIFGENAMGWYRQAPGKERELVAAITSGGSTDYADSVKGRFTISRDNAKNTVYLQMNSLKTEDTAVYYCAASGRVGPGYWYDSWGQGTQVTVSS | low polyreactivity |
| QVQLVESGGGLVQAGGSLRLSCAASVITFGRNTMGWYRQAPGKERELVAAISWNGDSTYYADSVKGRFTISRDNAKNTVYFQMNSLKPEDTAVYFCNADDVFLYQTDGLGDYWGQGTQVTVSS | low polyreactivity |
| QVQLVESGGGLVQAGGSLRLSCAASGRIFRQYAMGWYRQAPGKEREFVAGISTTGGSTYYADSVKGRFTISRDNAKNTVYLQMNSLKPEDTAVYYCAVRINWSRWYHYYTYNYWGQGTQVTVSS | high polyreactivity |
| QVQLVESGGGLVQAGGRLRLSCAASGRIFAYYAMGWYRQAPGKERELVAGISQRGSRTYYADSVKGRFTNSRDNAKNTVYLQMNSLTPEDTAVYYCAARDRRTVTMDYWGQGTQVTVSS | high polyreactivity |
| QVQLVESGGGLVQAGGSLRLSCAASGITFRWNAMGWYRQAPGKERELVAAITTRGGGTYYADSVKGRFTISRDNAKNTVYLQMNSLKPEDTAVYYCGAKKSRYPYNYWGQGTQVTVSS | high polyreactivity |
| QVQLVESGGGLVQAGGSLRLSCAASGSIFVYNAMGWYRQATGKEREMVAVINKSGDTTYYADSVKGRFTISRDNAKNTVYLQMNSLKPEDTAVYYCNASGEVLAAVVSYDYWGQGTQVTVSS | low polyreactivity |
| QVQLVESGGGLVQAGGSLRLSCAASGSIFDYNTMGWYRQAPGKERELVATISWSGDSTYYADSVKGRFTISRDNAKNTVYLQMNSLKPEDTAVYYCAKTAPPERYSAWRYSWGQGTQVTVSS | low polyreactivity |
| QVQLVESGRGLVQAGGSLRLSCAASGSIFGAYVMGWYRQAPGKERELVAAITRRGGSTYYADSVKGRFTISRDNAKNTVYLQMNSLKPEDTAVYYCAARRGAGDGYWGQGTQVNVSS | high polyreactivity |
| QVQLVESGGGLVQSGGSLRLSCAASGRIFGKYAMGWYRQAPGKERELVARISFSGGTTYYADSVKGRFTISRDNAKNTVYLQMYSLKPEDTAVYYCSARSVWSQRWAYDSWGQGTQVTVSS | high polyreactivity |
| QVQLVESGGGLVQAGGSLRLSCAASGYIFWSYAMGWYRQAPGKERELVAGITASGGSTYYADSVKGRFTISRDNAKNTVYLQMNSLKPEDTAVYYCAAEAYTQYWIYYYWGQCTQVTVSS | high polyreactivity |
| QVQLVESGGGLVQAGGSLLLSCAASGRTFWPYAMGWYRQAPGKERELVAAITSDGSTTYADSVTGRFTISRDNAKNTVYLQMNSLTPEDTAVYFCAAYGYYYYQTIPMDYWGQGTQVTVSS | low polyreactivity |
| QVQLVESGGGLVQAGGSLRLSCAASGRTFLIYAMGWSRPAPGKERELVAAINFSGGNTYNADSVKGRFTISRDNAKHTVYLQMNSLKPEDTAVYYCAAGVYSFRYDYWGQGTQVTVSS | low polyreactivity |
| QVHLVESGGGLVQAGGSLRLSCAASGSTFYANAMGWYRQAPGTERELVAAITSGGSTNYADSVKGRFTISRDNAKNTFYLQMNSLKPEDTAVYYCAADGGDQERGDYWGQGTQVTVSS | low polyreactivity |
| QVQLVESGGGLVHAGGSLRLSCAASGFIFPYYAMGWYRQAPGKERELVAAITSGGSTNYADSVKGRFTISRDNAKNTVYLQMNSLKPEDTAVYYCAKRLKRWSVYGRYDYWGQGTQVTVSS | high polyreactivity |
| QVQLVESGGGLLQAGGSLRLSCAASGRIFTLYDMGWYRQAPGKERELDAAISNSAGSTYYADSVKGRFTISLDNAKNTVYLQMNSLKTEDTAGYYCARSFSYWGYRSVYYWGQGTQVTVSS | high polyreactivity |
| QVQLQESGGGLVQAGGCLRLSCAASGTIFDPDYMVWYHQAPGKERELVASISLGRMTYYADSVKGRFTINRDNAKNTVYVQMNTLKPEDTAVYYCAVRVETIYYYSYWGQGTQVTVSS | high polyreactivity |
| QVQLVESGGGLVHAGGSLRLSCAAAGFTFTYYTMGWYRKAPGKERELVAAITENGGSTYYADSVKWRFTISRDNAKNTVYLQMKSLKPEDPAVYYCNARVWDYGGHGYDYWGQGTQVTVSS | low polyreactivity |
| QVQLVESGGGLVQAGGSLRLSCAASGSTFYYYAMGWYRQAPGKERELVAAITKSGGSTYYADSVKGRFTISGDNAKNTVYLQMNTLKPEDTAVYYCAAYLRSGYKFDYWGQGTQVTVSS | low polyreactivity |

| Sequence | polyreactivity (PSR sort gate) |
| --- | --- |
| QVQHVESGGGLVQAGGSLRLSCAASGSTFYRYAMGWYRQAPGNERELVAAISASGGSTYYADSVKGRFTISRDNAKNTVYLQMNSLKPEDTAVYYCNRDRRYRNDYWGQGTQVTVSS | high polyreactivity |
| QVQLVESGGGLVQAGGSLRLSCAASGFIFPRYAMGWYRQAPGKERELVAGITSRGTGTYYADSVKGRFTISRDNAKNTVYLQMNSLKPEDTAVYYCARLSTKPLPYDYWGLGTQVTVSS | high polyreactivity |
| QDQLGDSGGGLVQAGGSLRLSCAASGFTFGKYAMGWYRQAPGKERELVAAISWSGASTYYADSVKGRFTISRDNAMNTVYLQMNSLKAEDTALYYCAKRDYSYPWFRDYYYWGQGTLVTVSS | low polyreactivity |
| QVQLVESGGGVVQAGGSLRLSCAASGSIFLGNAMGWYRPAPGKERELVAAITWSGGSTYYADSVKGRFTISRDNAKNTVYLQMNSLKPEDTAVYYCNAYSYVAIRDGGDYWGQGTLVTVSS | low polyreactivity |
| QVQLVESGGGLVQAGGSLRLSCAASGSIFGYYAMGWYRQAPGKERELVAAISGSGGSTYYADSVKGRFTISRDNAKNTVYLQMNSLKPEDTAVYYCAAAYHGRHYYWGQGTQVTVSS | high polyreactivity |
| QVQLVESGGGLVQAGGSLRLSCAASGSTFRSYTMVWYRQAPGKERELVADINGTGGSTYYADSVKGRFTISRDNAKNTVYLQMNSRKPEDTAVYNCAADGYFRTVTSGWALRMGYWGQGTQVTVSS | high polyreactivity |
| QVQLVESGGGLVQAGGSLRLSCDASGFIFYSYAMGWYRQAPGKERELVAGITSGGITSYADSVKGRFTISRDNAKNTVYLQMNSLKPEDTAVYYCAKDVRSYRISVYGVGYWGQGTQVTVSS | high polyreactivity |
| QVQLVESGGGLVQAGGSLRLSCAASGRIFYGYAMGWYRQAPGKERELVASISRRGSSTYYADSVKGRFTISRDNAKNTVYLQMNSLKPEDTAVYYCAKYTVQYAISHYDYWGQGTQVTVSS | high polyreactivity |
| QVQLVESGGGLVQAGGSLRLSCAASGRTFGRNAMGWYRQAPGKEMELVAAISWTGGNTYYADSVKGRFTISRDNAKNTVYLQMNSLKPEDTAVYYCAARGRYVTPQPSYDYWGQGTQVTVSS | high polyreactivity |
| QVQLVESGGGLVQAGGSVRLSCAASGFIISYYAMGWYRQAPGKERELFAAISWSGGSTYYADSVKGSFTISRDNAKNTVYLQMNSLKPEDTAVYYCAADFLYGAEGNDYWGQGTQVTVSS | high polyreactivity |
| QVQLVESCGGLVQAGGSLRLSCAASGYIFVYNAMGWYRQAHGKERELVAAISTTGGRTYYADSVKGRFTISRDNAKNTVYLQMNSLKPEDTAVYYCAARAYYARSLFGYWGQGTQVNVSS | high polyreactivity |
| QVQLVESGGGIVQAGGSLRLSCADSGFISVTYAMGWYRPAPGKERELDAAITYSGGSTYYADSVKGRYTISRDNAKNTVYLQMNSLKPEDTAVYYCAKKRRVVVLSVQGDYWGQGTQVTVSS | low polyreactivity |
| QVQLVESGGGLVQAGGSLRLSCAASGRIFLKNAMGWYRQAPGKERELVAVISRGGSTYYADSVKGRFTISRDNAKNTVYLQMNSLKPEDTAVYYCAAPYNVIFGGLDYWGQGTQVTVSS | high polyreactivity |
| QVQLVESGGGLVQAGGSLRLSCAASGFIFADYAMGWYRPAPGKERELVAAISSGGRTKYADSVKGRFTISRDNAKNTVYLQMNSLIPDDTAVYYCAKALRRVPRIQAYPVPQGDYWGHGTQVTVSS | high polyreactivity |
| QVQLVESGGGLVQAGGSLRLSCAASGFTFDSYAMGWYRQAPGKERELVAAITWDGGSTYYADSVKGRFTISRDNAKNTVYLQMNSLKPEDTAVYYCAADFGTISIDVYSWMDYWGQGTQVTVSS | low polyreactivity |
| QVQLVESGGGLVQAGGSLRLSCAASGFTFPGYAMGWYRQAPGKERELVAAISYSSGSTYYADSVKGRFTISRDNAKNTVYLQMNSLKPEDTAVYYCNRVYRFRGITELDYWGQGTQVTVSS | high polyreactivity |
| QVQLVESVGGLVQAGGSLRLICAASGSIFSPYAMGWYRQAPGKERELVAAINFNGGTTYYADSVKGRFTISRDNAKNTVDLQMNSLKPEDTAVYYCAADEVPGFGYPPYPWFDYWGQGTQVTVSS | low polyreactivity |
| QVQRVESGGGLVQAGGSLRLTCAPSGFIFYYYAMGWYRQAPGKEMQLVAAIDSGGSTYADSVNGRFTISRDNAKNTVYLQMTSLKPEDTAVYYCAADYYLPWYPDYDYWGQGTQVTVSS | low polyreactivity |
| QVQLVESGGGLVQAGGSLRLSCAASGNTFAPNAMGWYRQAPGKERELVAVISWSSGRTYYADSVKGRFTISRDNAKNTVYLQMNSLKPEDTAVYYCAARFGSGFNYWGQGTQVTVSS | high polyreactivity |
| QVQLVESGGGLVQAGGSLRLSCAASGITLWQSAKGWYRQAPGKERELVAGITDTGDSTYYADSVKGRFTISRDNAKNTVYLQMNSLKPEDTAVYYCAVPRSALLRAPYELYSWGQGTQVTVSS | low polyreactivity |
| QVQLVESGGGLVQAGGSLRLSCAASGSIFRYYAMGWYRPAPGKERELVAAISSRGGRTYYADSVKGRFTISRDNAKNTVYLQMNSLIPEDTAVYYCAARRYRYTTPFRYGYDYWGQGTQVTVSS | high polyreactivity |

Reference: the nanobody polyreactivity screen of Harvey et al. (2022)
